Assay results taken from the supplement of paper PMC9170038.

System: MS2 coat protein
Assay: apparent KD of MS2 coat protein; designed switch direction (-1 OFF switch, 1 ON switch): -1; higher = weaker reporter binding
Procedure, shortened: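 Designed RNA switches sharing common flanks were transcribed on Illumina chips by stalled E. coli RNA polymerase. They were titrated with SNAP-549-labelled MS2 coat protein, from 0.7 or 1.5 nM doubling to 3 µM, in Tris-HCl pH 7.5 buffer with KCl, MgCl2, BSA, DTT, tRNA and Tween-20. Titrations ran without input, with 200 uM small-molecule ligand, or with an oligonucleotide input. The apparent KD of each design is the median over its clusters, after curve-fitting of normalised cluster fluorescence.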

[1] = Eterna round: R95, input ligand: microRNA oligo, concentration not stated
[2] = input ligand: microRNA oligo, concentration not stated
[3] = Eterna round: R95, input ligand: FMN 200 uM
[4] = Eterna round: R95, input ligand: none

Sequence	apparent KD of MS2 coat protein (input ligand: FMN 200 uM)	apparent KD of MS2 coat protein (input ligand: none)	apparent KD of MS2 coat protein [1]	apparent KD of MS2 coat protein [2]	apparent KD of MS2 coat protein [3]	apparent KD of MS2 coat protein [4]
AAAAGACAAGGAUAUACUUGGAAAAUAAAGCUUGAGGAAGUACUUGAGGAUCACCCAAGUAGAAGGUGUAGGCG [Edtiisre] (Eterna round: R97, puzzle: Exclusion 2)	37.7 nM	31.5 nM				
GUGUAGGUAGGAUAUACAUGAGGAUCACCCAUGUGAAUAAGAUAGAAUAAGAUAAAGUGUAGAAGGGCUAGUGU [Excluse me!!! 13 - Jieux - Exclusion 3] (puzzle: Exclusion 3)			34.5 nM			
GGUGAAGCAGGAUAUGUAUCGAUAUACAUGAGGAUCACCCAUGUCAUGUACAAAUUGCAUAUAGAAGGGCUUCACC [Exclusion 5 (FMN-MS2 slide v.4)] (Eterna round: R97, puzzle: Exclusion 5)	168 nM	47.4 nM				
AGAUCCUGAGUCAGGAUAUAGAGACGGUAGUCGGGCUAGAAGGGACAUGAGGAUCACCCAUGUGGGUUCUUGCC [Rilalera] (puzzle: Brourd's mod of Exclusion 4)			10.1 nM			
GGCGUCGUGUAGGAUAUGAAUUGAAAGGCUUCGUCAGAAGGGCACACAUGAGGAUCACCCAUGUGACAGCUGAG [Eternabot (L1) Solution 78] (Eterna round: R97, puzzle: Exclusion 6)	20 nM	19.9 nM				
UGAAUGUGAGGAUAUGGUGAGUAGUGCCUAAGCGCUGCUCACCAGAAGGCACAUGAGGAUCACCCAUGUACUUG [Mat - Exclusion 4 - Mod of JL - D19] (puzzle: Exclusion 4)			47.9 nM			
CUGUACUGAGGAUAUACAUGAGGAUCACCCAUGUGAUUUAGUGCACGCGUACGUGUACGUAGAAGGCAGUACAG [Mat - Exclusion 3 - Eli Mod - D36] (Eterna round: R97, puzzle: Exclusion 3)	183 nM	25.2 nM				
AACUGGCGAGGAUAUACUUGGCAUAUAGCCUAAUUUCGGCUACUUGAGGAUCACCCAAGUAGAAGGUGCACGGC [Anlaxebe] (Eterna round: R97, puzzle: Exclusion 2)	16.5 nM	15.1 nM				
AACUGUGAGGCAGGAUAUGAAGCAUGGGCCGCGUGAUAAUACAUGAGGAUCACCCAUGUAGGGAUUCAGAAGGGCCCAGAGCAC [Atusveer] (Eterna round: R96, puzzle: Exclusion NG 2)	20.4 nM	18.2 nM		11.5 nM		
CGCAUGUGAGGAUAUUAGUAGUAGUCAGAAUAGACUAUUACUGAGAAGGUACAUGAGGAUCACCCAUGUAUGCG [Eli x4 4.22] (Eterna round: R97, puzzle: Exclusion 4)	38.9 nM	21.5 nM				
CUAGCGAUUGUAGGAUAUCGGACUGUUUCAGUCUGAGAAGGACAUGAGGAUCACCCAUGUGAUGCUACGUGAGUAGCACGCUAG [JL ENG1 3.85] (Eterna round: R96, puzzle: Exclusion NG 1)	76.9 nM	30.5 nM		20 nM		
GGGCUGUCAGGAUAUACAUGAGGAUCACCCAUGUCGAGCUAUGAUAGGGCAAGAGUAGGUAGAAGGGACGAGAG [JR_Exclu3_Sub043] (puzzle: Exclusion 3)			32.6 nM		43.7 nM	32.7 nM
GGUCUGCGAGGAUAUACAUGAGGAUCACCCAUGUGCGAGAUACUAGUGAGGUCGAUUGGUAGAAGGCGCGGACG [JL-ex3-2.06 salish99 mod] (puzzle: Exclusion 3)			86.4 nM		182 nM	88.8 nM
AAUCGGUGAGGAUAUCUAUUGCGGGAGGAAAUUCGCGAAACGGAGAAGGCACAUGAGGAUCACCCAUGUGAAUC [EX4 C.18] (Eterna round: R97, puzzle: Exclusion 4)	25.7 nM	18.8 nM				
AGCUGGUCAGGAUAUUUGGAGGGACUCCAAUGGUCCACGACGGAGAAGGGACAUGAGGAUCACCCAUGUGGUCG [Eternabot (L2) Solution 13] (Eterna round: R97, puzzle: Exclusion 4)	69.3 nM	115 nM				
UACUUCCGAGGAUAUACAUGAGGAUCACCCAUGUGCUUCAGCAUCGAAAGAUGCAUGGGUAGAAGGCGGUAGUU [LRO-Excl3-19] (puzzle: Exclusion 3)			36.6 nM			
GCACGGAGUGUAGGAUAUCUGUGCGAUUAGCUCAGAGAAGGACACAUGAGGAUCACCCAUGUGUUCCUCGGAAACGAACCGUGC [Eli exng1 - 051] (Eterna round: R96, puzzle: Exclusion NG 1)	32.2 nM	14 nM		10.9 nM		
AUGAGCAGACGGAGAUCCAACAUGAGGAUCACCCAUGUCUCAAAAGCUUUUUGCUCAUCUUAUCGUACCUUGGUGCU [Mat - Sensor v3 - turn-off var 1 - JL Mod - D13] (puzzle: Sensor v3, turn-off variant 1)			15.4 nM		162 nM	238 nM
